Data from patent publication US20220389394A1 (Gilead, published 2022).

T1: human FLT3 on the AML5 cell line (human, UniProt P36888 27-993)
T1 sequence (looked up): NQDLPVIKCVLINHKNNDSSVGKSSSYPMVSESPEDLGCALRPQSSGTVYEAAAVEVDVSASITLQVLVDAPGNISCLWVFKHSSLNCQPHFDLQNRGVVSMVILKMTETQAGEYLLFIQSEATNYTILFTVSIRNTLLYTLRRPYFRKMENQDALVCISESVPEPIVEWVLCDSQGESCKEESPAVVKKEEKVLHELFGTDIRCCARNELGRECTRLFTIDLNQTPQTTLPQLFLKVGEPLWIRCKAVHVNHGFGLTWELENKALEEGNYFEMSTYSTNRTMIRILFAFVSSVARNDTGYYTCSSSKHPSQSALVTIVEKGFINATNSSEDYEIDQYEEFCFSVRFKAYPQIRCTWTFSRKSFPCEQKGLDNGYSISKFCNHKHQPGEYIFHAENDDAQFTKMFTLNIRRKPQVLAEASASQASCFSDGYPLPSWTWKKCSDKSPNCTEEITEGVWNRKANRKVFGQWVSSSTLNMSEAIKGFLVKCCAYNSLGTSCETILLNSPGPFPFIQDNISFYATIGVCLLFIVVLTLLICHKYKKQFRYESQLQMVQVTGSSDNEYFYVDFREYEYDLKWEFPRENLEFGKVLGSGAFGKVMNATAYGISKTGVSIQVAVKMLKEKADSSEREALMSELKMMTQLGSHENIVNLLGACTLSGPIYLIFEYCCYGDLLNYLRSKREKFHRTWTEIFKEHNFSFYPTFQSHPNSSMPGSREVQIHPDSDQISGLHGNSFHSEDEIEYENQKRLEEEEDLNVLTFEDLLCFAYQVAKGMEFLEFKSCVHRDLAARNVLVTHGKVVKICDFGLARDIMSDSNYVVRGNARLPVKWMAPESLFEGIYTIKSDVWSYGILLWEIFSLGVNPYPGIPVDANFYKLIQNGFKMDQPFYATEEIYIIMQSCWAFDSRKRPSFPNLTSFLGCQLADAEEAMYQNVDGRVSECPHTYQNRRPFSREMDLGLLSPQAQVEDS

T2: his-tagged recombinant human Flt3 receptor (Sino Biologicals) (human, UniProt P36888 27-541, limits assumed)
T2 construct: Bought protein; also called human recombinant FLT3; not shown: His tag
T2 sequence (looked up): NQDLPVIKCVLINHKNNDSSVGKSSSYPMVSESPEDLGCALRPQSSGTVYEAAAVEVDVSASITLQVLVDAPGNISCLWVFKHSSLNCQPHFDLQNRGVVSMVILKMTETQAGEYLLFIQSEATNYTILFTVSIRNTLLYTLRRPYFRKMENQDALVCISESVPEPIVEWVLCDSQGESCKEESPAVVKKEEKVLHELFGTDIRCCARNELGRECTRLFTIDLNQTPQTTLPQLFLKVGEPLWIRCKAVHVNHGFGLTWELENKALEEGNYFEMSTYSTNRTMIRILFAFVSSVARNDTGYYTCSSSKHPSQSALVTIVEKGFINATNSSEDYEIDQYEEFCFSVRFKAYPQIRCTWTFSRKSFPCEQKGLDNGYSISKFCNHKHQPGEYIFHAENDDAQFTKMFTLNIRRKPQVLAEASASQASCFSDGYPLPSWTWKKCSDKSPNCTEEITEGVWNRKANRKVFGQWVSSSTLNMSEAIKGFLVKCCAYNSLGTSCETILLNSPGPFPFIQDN


Key:
[1] = molecular target: T3, recombinant human FcRn (human, UniProt P55899 24-297; P61769 21-119, limits assumed); test: FcRn ELISA
T3 construct: a beta-2-microglobulin chain is not mentioned; also called human recombinant FcRn

[2] = molecular target: T1, human FLT3 on the AML5 cell line; test: cell-based or functional assay
[3] = molecular target: T4, recombinant human C1q protein (Fitzgerald) (human, UniProt P02745 23-245; P02746 28-253; P02747 29-245, limits assumed); test: ELISA, test article immobilized, C1q added; text: devoid of C1q binding ability
T4 construct: also called human recombinant complement protein, C1q

[4] = molecular target: T3, recombinant human FcRn; test: ELISA; recombinant human FcRn coated, serially diluted test article, anti-human (H+L)-HRP, 4PL fit
Protocol: (§1) Graph is a result of one experiment. Experiment was performed in duplicate. Error bars represent standard deviation of the mean values.
Signal was developed using TMB substrate then quenched prior to reading absorbance at 450-650 nm on a SpectraMax plate reader.

[5] = molecular target: T2, his-tagged recombinant human Flt3 …; test: ELISA; His-tagged recombinant human Flt3 on nickel plate, serially diluted Flt3L-Fc, anti-human (H+L)-HRP, 4PL fit
Protocol: as §1
Signal was developed using TMB substrate then quenched prior to reading absorbance at 450 nm on a SpectraMax plate reader.

T4 sequence (P02745 23-245 limits assumed, chain 1 of 3): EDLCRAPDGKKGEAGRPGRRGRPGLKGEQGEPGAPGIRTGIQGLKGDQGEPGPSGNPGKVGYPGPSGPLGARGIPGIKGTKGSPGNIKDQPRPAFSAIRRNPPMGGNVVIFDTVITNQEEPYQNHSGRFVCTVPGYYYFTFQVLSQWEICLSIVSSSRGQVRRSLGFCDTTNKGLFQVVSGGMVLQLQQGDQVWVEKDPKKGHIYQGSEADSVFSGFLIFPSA
T4 sequence (P02746 28-253 limits assumed, chain 2 of 3): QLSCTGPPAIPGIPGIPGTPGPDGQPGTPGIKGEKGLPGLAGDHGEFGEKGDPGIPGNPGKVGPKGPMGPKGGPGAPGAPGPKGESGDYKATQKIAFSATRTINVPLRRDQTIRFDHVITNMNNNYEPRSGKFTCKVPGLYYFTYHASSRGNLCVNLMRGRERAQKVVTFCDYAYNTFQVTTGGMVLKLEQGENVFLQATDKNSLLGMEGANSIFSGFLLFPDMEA
T4 sequence (P02747 29-245 limits assumed, chain 3 of 3): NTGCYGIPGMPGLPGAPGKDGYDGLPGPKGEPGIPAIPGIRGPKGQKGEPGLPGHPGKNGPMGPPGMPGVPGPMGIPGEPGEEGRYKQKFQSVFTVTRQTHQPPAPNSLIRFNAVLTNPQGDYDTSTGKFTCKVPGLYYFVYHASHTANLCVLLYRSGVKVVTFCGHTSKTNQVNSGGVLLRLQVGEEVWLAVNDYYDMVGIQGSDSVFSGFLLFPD

fold increase in FcRn binding against SEQ ID NO:1 [1] [fold] | EC50 (nM), AML5 proliferation [2] [nM] | EC50 [4] [nM] | EC50 [5] [nM] | fold increase in FcRn binding against SEQ ID NO:6 [1] [fold] | Binder | binding result [3]
38 | 0.037 | 61 | 0.88 | – | human FLT3-ligand human hingeless IgG1 (M252Y/S254T/T256E) fusion protein (SEQ ID NO:9) (Fc fusion, also called FLT3L ECD-hingeless hG1 (M252Y/S254T/T256E)) TQDCSFQHSPISSDFAVKIRELSDYLLQDYPVTVASNLQDEELCGGLWRLVLAQRWMERLKTVAGSKMQGLLERVNTEIHFVTKCAFQPPPSCLRFVQTNISRLLQETSEQLVALKPWITRQNFSRCLELQCQPDSSTLPPPWSPRPLEATAPTAPQGGPSVFLFPPKPKDTLYITREPEVTCVVVDVSHEDPEVKFNWYVDGVEVHNAKTKPREEQYNSTYRVVSVLTVLHQDWLNGKEYKCKVSNKALPAPIEKTISKAKGQPREPQVYTLPPSREEMTKNQVSLTCLVKGFYPSDIAVEWESNGQPENNYKTTPPVLDSDGSFFLYSKLTVDKSRWQQGNVFSCSVMHEALHNHYTQKSLSLSPGK | no binding (tested: 94 nM (highest of the titration))
– | 0.046 | 178 | 0.92 | 2 | human FLT3-ligand (Δ5 amino acid) human IgG4 (S228P/F234A/L235A/M252Y/S254T/T256E) fusion protein (SEQ ID NO:14) (Fc fusion, also called FLT3L ECD (Δ C-term 5aa (PTAPQ)) - hG4 (S228P/F234A/L235A/M252Y/S254T/T256E)) TQDCSFQHSPISSDFAVKIRELSDYLLQDYPVTVASNLQDEELCGGLWRLVLAQRWMERLKTVAGSKMQGLLERVNTEIHFVTKCAFQPPPSCLRFVQTNISRLLQETSEQLVALKPWITRQNFSRCLELQCQPDSSTLPPPWSPRPLEATAESKYGPPCPPCPAPEAAGGPSVFLFPPKPKDTLYITREPEVTCVVVDVSQEDPEVQFNWYVDGVEVHNAKTKPREEQFNSTYRVVSVLTVLHQDWLNGKEYKCKVSNKGLPSSIEKTISKAKGQPREPQVYTLPPSQEEMTKNQVSLTCLVKGFYPSDIAVEWESNGQPENNYKTTPPVLDSDGSFFLYSRLTVDKSRWQEGNVFSCSVMHEALHNHYTQKSLSLSLGK | no binding (tested: 94 nM (highest of the titration))
